# Experimental data published in the supplement of paper PMC12455559.
# Assay: purified protein yield per well (BCA); higher = higher soluble expression
# Outline: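 The measured quantity is purified protein yield per well, determined with the Pierce Rapid Gold BCA kit. Anything below 25 ug (0.1 mg/mL) lies under the detection threshold. Enzymes were expressed in E. coli C41(DE3) in 2 mL autoinduction cultures with 100 µg/mL kanamycin at 37 °C for 2 h, then 18 °C for 40 h, and purified on an OT-2 robot using Ni-charged magnetic beads and SUMO protease release.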
row,Sequence,purified protein yield per well [µg]
1,QIGPDPTSSSLNATSGPFAVSTSTVAIASGFGGGTIYYPTTTGQYGVIAVSPGFTATQSSIAWLGRRLATHGFVVITIDTLTTLDQPASRATQLVAALNYVVNSATSTVRSRVDSSKRAVAGHSMGGGGALIAAQNNPGLKASLPLTPWNLSTNFSQNQVPTLIFGSDGDTVAPVAVHSRPFYASLPSSTYKAYAELNLATHFTPNSTNTPIGRYGVAWMKRFIDSDTRYSAFLCGAEHQAYATALVFDRYNQNCPY [ESM113],< 25
2,QNCDSLLLESITNPGPYSVNDIDESAGIRNGSDYSGSTIYYPVNSNGNYASIVLVPGYMNTESTIQNWGPFLASHGIVTMTIGTNSLTDNHIQRKDALLDAIISLKNENNRLASPLYAKLATTTIAVGGFSKGGGGAQLAAVDAPDLKAVVALYPWLDNPSQSDLNHNIPVIIVSGELDLIAPPSSHADVHYDYTPNTTNKLKYEVEFASHDALSGPTGGNGEVGKRVFSWLQTYLLDDSCYCPLMLVPATTSSEYITNIVCDNVTQVSEFSYANKKLIKVIDLLGREAKENKNTPLFYIYDDGTVEKKIIIE [TEP087],< 25
3,QNCGNISLNNITNPGPYGYLTMDQNDGLRDGPDYGNATVYYPTNTTTPFACVSIVPGFFSTQSSVAAWGPFLASHGIVSIIFDTNSLFDSPADRADGLLDALETMRQENTRTASPLFGLIDESRFGVMGWSMGGGGAQLAAVIDPSLKAVIALCPWLNSPNSNTLNHTVPVLILSGELDPTAPPDLHADVHFDLTPNTTDKLLFEVDGGDHSIANDPANAQGDIGKYGLAWLRNYLLDDPCHCPLVLLPSTETSNTMTNVVCPPTLACPIQLTLFNNLIADGTYKAIQTVTSASMVPLSGNVSLKAEQSIFLDCGFSVDSGAAFEAVIQICN [TEP048],< 25
4,QNPFERGPAPTTASLEASRGPFATSSFTVSRPSGYGAGTVYYPTNAGGTVGAIAIVPGYTARQSSINWWGPRLASHGFVVITIDTNSTLDQPSSRSRQQLAALDQVATLARTSSSPIYNKVDTTRMGVMGWSMGGGGSLISAENRPSLKAAAPQAPWNSSTNFSSVTVPTLIFACENDSIAATGSHASPMYNSMSRNPKQYLEINGGSHSCANSGNSNQALIGKKGVAWMKRYMDNDTRYTSFACANPNSTRVSDFRVARCS [ESM086],< 25
5,QNPYERGPAPSTASLEASRGPFATSSFTVSRPSGYGAGTVYYPTNAGGTVGAIAIVPGYTARQSSINWWGPRLASHGFVVITIDTNSTSDQPASRSRQQLAALDQVATLNSTSSSPIYNKVDTSRMGVMGWSMGGGGSLISAQNRSSLKAAAPQAPWNSSTNFSSVTVPTLIFACESDAIARVGSHASPMYNSMTRNPKQFMEIEGGSHSCANSGNSNQALIGKKGVAWMKRFMDNDTRYTSFACSNPNSTRVSDFRVARCS [ESM114],< 25
6,QNPYERGPAPTTSSLEASRGPFSTSSFTVSRPSGYGAGTVYYPTNAGGTVGAIAIVPGFTARQSSINWWGPRLASHGFVVITIDTNSTLDQPASRSRQQLAALDQVATLARTSSSPIYNKVDTTRMGVMGWSMGGGGSLISAQNRPSLKAAAPQAPWNGSTSFGSVTVPTLIFACENDSIAPVGSHASPMYNSMTRNPKEFIEIDGGSHSCANSGNSNQALIGKKGVAWMKRFMDNDTRYTSFACANPNSTRVSDFRVARCS [ESM066],< 25
7,QPIDSLETLSIKEQSTITLPTTLATKIPLTEVPATKIPLTTTTSTSPTSNCIPDSVITAAELSATRDNGPFTVATKSVPRQLANGFGGGTIHYPTNAGDCGLLGGIAVIPGYVSYEASIKWWGPRLASWGFVVITIDTNSIYDDPDSRATQLSAALDHILSDSTVGAQIDSTRLGAIGWSMGGGGALQLATKRSDIRVIIPQTPYHDKDYGNMDTPALFITCQNDRIASNKKYSSPFYNNAAGAKMKIEIKNGSHFCPSYRFNEILLSKPGIAWMHRYINGDTRFDKFLCNNENYGNSPRISAYDYKDCG [TEP174],< 25
8,QQIGPNPTSAQLNATSGPFAVSSSNVLIASGFGGGTIYYPTQSGSYGVIAVCPGFTGTSSSISWFARRLATHGFVTIAMDTNTLLDQPDSRATQLRAALNYLINNSSSTIRSRINPNLRGVAGHSMGGGGTLIASASDSTLKVGIPLTPWNLSSLPFYSIRVPQLVFGADGDTIAPYAVHARPFYNAIPSTTKKAYALLQSASHFTPNTTDERIGRYGVAFAKRWVYNDTRYSTFLTGAEHNAYNNILRFQTYLHNGPY [DP062],< 25
9,QQTGPDPTSASLNATAGPFAVSTATVTSPVGFGGGTIYYPTIAGQYGVVALSPGFTATQSSVAWLGRRIATHGFVVVTINTNSTLDQPASRANQLIAALNYVANSASTTVRSRVDASRRAVGGHSMGGGGSLIAAQNNPSLKAILPLTPWNLSTNFSGVQVPTLIVGADGDAVAPVASHARPFYASLPSTVRKAYGELNMASHSTPTSGVNTPIGRYGVTWMKRFVDGDTRYSTFLCGAEHQAYATATVFDRYSQNCPY [ESM127],< 25
10,QSAGGNPYAIGPDPTASSLEASSGPFGYTSTTIPSSEATGYGGGTVYYPANVNIATGGIVVVPGYGATQSNISWWGPRLASNGFVVYTIDTTNIYDLPAQRAKEIMAAVAQLKTFSTTTGNEIYGKVDTNRIGIMGGSFGGGGTLIAETTHPQLKAAIPFVPKIASGNPDLSKITIPTLIIGCQEDQVAPPKSYAIPYYSAIPEQNHKAYLEISNGQHLCASTQGSDQNKPIIGKYGVAWMKRFIDNDSRYNPYLCGSPHQTDVSNSTVISGYKDTCPY [DP020],< 25
11,QSNPYARGPDPTTAALEASRGPFAFSSFSVTRPSGYGAGTVYYPTNAGGTVGAIAIVPGFFARQSSINWWGPRLASHGFVVITIDTNSTFDQPASRASQQMAALRQVATLAGTSSSPIYRKVDTARLGVMGWSMGGGGTLLAARDNPSLKAAAPQAPWNSSTTNFSSMTVPTLIIACESDSTAPTRSHAEPFYTSMSRNSKQYLEINNGSHSCANGGSNTGLLGKKGVAWMKRFMDEDRRYTSFACSNPNSSAVSDFRTANCS [ESM149],< 25
12,QSNPYQKGPDPTHASIEADGPYAVSTQALKGSGFGSGTVYSPNAAGSYALVAVCPGFVSAQSSIAQISRRLATHGFVVVTIDTNTIFDFPDSRSTQLLAALKAVAALSTGPAAGKIDTARQAVAGWSMGGGGTLLAAGSTPALKGAVAYAPWALNNNLKASKVPAAILGGTADIVAPPGIFADVFYKAIPAGSSKLLGIVKGADHFFSNTASQPASYTTVAWFKRFVDNDTRYGPFLNGDTRYSRFSYTGPF [TEP040],< 25
13,QSNPYQRGPAPTASSLEASRGPLAISQFTVSRPSGYRAGTVYYPTNAGGTVGAIAVVPGYTAYQSDINWWGPRLASWGFVVITIDTNSTLDQPSSRSRQQLAALDQVAALSRTSSSPIYNKVDTSRMGVMGWSMGGGGSLISTENRPSLKASIPFAPWNSTSSFSSVVTPTFIIACQSDIIAPVASHADDFYDSLSRPPKMFLEIRGGSHYCANSSNNDKGLLGSKGVAWMKRYIDNDTRFTSYACSNPNTLAVSDFRTARCS [ESM104],< 25
14,QSNPYQRGPNPTRAALMTDGPYAVATASVWPYIYGFGGGTIYYPTGTTETFGGIAVSPGFTADSTSLAWFGRRLASHGFVVIVINTNSRFDFPDSRASQLQAAIDYLRTNSPAAVRARLDENRIAVAGHSMGGGASLRASERLPWLKASVPLTPWHTDKTFSTSVPQLIIGAEWDTIAPVSSHAIPFYNNLPSSTPKVYLELNNATHFAPNTTNATISLYAISWMKRWVDNDTRYNQFLCGVNHTADPSISDYRTNAWTYCP [DP073],< 25
15,QSTTPTSSALNATAGPLAVSTSTVTLASGFGGGTIYYPTTAGSYGLIALCPGFTATETSLAWLARRLASWGFVVVNMNTTTTMDQPASRATQLMAALKYALNSSSSAVRARIDPSRLAVAGHSMGGGGTLIAARDNPTLKAGYPLTPWNSSTNFSGVTVPTMIIGSDGDTVAPVAQHARPFYASLPAATFKAYGELNNATHFTPNSTSTPIGRYGVAWMKRFLDGDTRYSTFLCGSEHAAYATSLVFDRYNQNCPY [ESM187],< 25
16,QSYVHGPDPTTAALETTGPYAVSNTKIAAPSGYGGGTVYYPTTNTEGAFAVVSVTPGFTEKQSAINWLGPLLASHGFVVVTIDTKTALDAPSSRAKQMIAALKQVSGLSANSTSPFAGRVDGTRQAVMGHSMGGGGSLDAARDNPTLKASIPMAPWETVKNYSTMTVPTLIVSCESDTIAPVASHANKFYDSFTPTLNKALLEMKGVGHSCTNSTTSAALKAVIGKYSISWLKRFADNDNRYSDFLCGASHQADVSGSLISTYKENCPY [DP066],< 25
17,QTNPYARGPNPTASSLEASTGPFAYRSFTVSRPSGYGAGTVYYPTNAGGTVGAIAIVPGYTARQSSINWWGPRLASHGFVVITIDTNSTLDQPSSRSRQQMAALQQVASLNSTSSSPIYGKVDTSRMGVMGWSMGGGGSLISARDNPSLKAAAPQAPWNTSSSFSSMTVPTLIFACESDSIAPVNSHASPMYNSMRSNPRQYLEINNGSHSCANSGNSNQALIGKKGVAWMKRYMDNDTRYSTFACQNPNSTRVSDFRVANCS [ESM094],< 25
18,QTNPYARGPNPTDSLLEASRGPFSISSFTVSRPSGYGAGTVYYPTNAGGTVGAIAIVPGYTARQSSINWWGPRLASHGFVVITIDTNSTLDQPSSRSRQQMAALSQVVSLSRTSTSPIYNKVDASRLGVMGWSMGGGGSLISARDNPSIKAAAPQAPWNTSSNFSSMTVPTLIFACENDSIASTSSHASPMYNSMRLNPRQYFEINNGSHSCANSGNSNQALIGKRGVAWMKRFMDNDTRYTSFACSNPNTFSVSEFRTANCS [ESM180],< 25
19,QTNPYARGPNPTRDSLEASRGPFAFSSFTVSRPSGYAGGTVYYPTNAGGTVGAIAVVPGFSARQSSINWWGPRLASHGFVVITIDTNSSFDQPPSRSRQQLAALDQVATLARTSGSPIYNKVDTTRMGVMGSSMGGGGSMISAQNRPSLKAAIPQSPSVSSTNFSSVVVPTLIFACENDTVPPGGSQAVAIYNSMMLNPKQLLEIAGGSPFCGNSN [ESM182],< 25
20,QTNPYERGPAPTTASLEASRGPFSISSFTVSRPSGYGAGTVYYPTNAGGTVGAIAIVPGFLARQSSINWWGPRLASHGFVVITIDTNSTLDQPASRSRQQLAALDQVAALARTSSSPIYNRVDTTRMGVMGWSMGGGGTLISAQNRPSIKAAAPQAPYNSSTNFSSVTVPTLIFACENDTVAPVNRHASPFYSSMSRNSKQYLEINGGSHSCANSGNSNQPLIGKKGVAWMKRFMDNDTRYTPFACANPNSTRVSEFRTANCS [ESM073],< 25
21,QTNPYERGPAPTTSSLEASRGPFSYQSFTVSRPSGYRAGTVYYPTNAGGPVGAIAIVPGFTARQSSINWWGPRLASHGFVVITIDTNSTLDQPDSRSRQQMAALSQVATLSRTSSSPIYNKVDTSRLGVMGWSMGGGGSLISARNNPSIKAAAPQAPWSASKNFSSLTVPTLIIACENDTIAPVNQHADTFYDSMSRNPREFLEINNGSHSCANSGNSNQALLGKKGVAWMKRFMDNDRRYTSFACSNPNSYNVSDFRVAACN [ESM158],< 25
